We go through 167 variants from the RNAGym collection of RNA variant scans (doi:10.7554/elife.80360).

The chains are these.
B1: Hairpin Ribozyme (parent)
chain: GUCCUCUUUCACGUGCGCGUGAAAGAGAGAAGUGAACCAGAGAAACACACGUUGUGGUAUAUUACCUGGUA

Variants of B1 are the subject of the series. The experiment in a line: self-cleavage, relative activity (ratio to wild type); higher = more cleavage; co-transcriptional.
On to C16G U63G, for which the self-cleavage was 0.182.
To A30U U53A belongs 0.138; to A24U A45G, 0.241; to A44G G54A, 0.151.
For the variant U58G U60C, the self-cleavage is 0.731.
On to A11G C37G, for which the self-cleavage came to 0.34.
Take U2A G27U: the self-cleavage came out at 0.124.
To C4A U5C belongs 0.23; to U67A A71C, 0.381; to A49C G69U, 0.136.
For the variant G42U C46A, the self-cleavage came out at 0.201.
To C3U G42A belongs 0.123; to C4U G68U, 0.109; to A11U U63C, 0.122.
To U7C U67C belongs 0.215; to A11U G68C, 0.13; to U20C C37G, 0.342.
G21C A71C: the self-cleavage was 1.12.
To G27C G69C belongs 0.1; to C6G C65U, 0.221; to A31U A41G, 0.0486.
In the case of A35U A41U it was 1.41.
To G13A G29U belongs 0.116; to A11C A59G, 0.161; to U20C A43C, 0.0285.
As for U55A A71G, the self-cleavage was found to be 0.14.
In the case of C10A U53A it was 0.678; in that of G1C A28U, 0.247.
In the case of G15A C65A it was 0.863; in that of C50U A64C, 0.159.
To A26G U63C belongs 0.225; to G25C A71G, 0.687.
For the variant G19U G27A, the self-cleavage came to 0.489.
As for C3G U62A, the self-cleavage was found to be 0.107.
Turning to U9A A47C, the self-cleavage was found to be 0.205.
With A24G G51A, the self-cleavage is 0.745.
To U52G A59C belongs 0.206.
To G19C U60A belongs 0.9; to G68U A71C, 0.329.
In the case of C18U G51A it was 1.26; in that of A22G U33C, 0.192; in that of G21U U60G, 0.48.
As for A23C U60G, the self-cleavage stood at 0.61.
In the case of G1A A43G it was 0.2; in that of C3U A11C, 0.402.
To U33C G42U belongs 0.115; to A47C U63A, 0.127; to G1A A39G, 0.152.
In the case of A11C U53G it was 0.863; in that of G34C A45U, 0.33; in that of U2G A45G, 0.118.
In the case of U7C U55C, the self-cleavage is 0.418.
In the case of G17C U63G it was 0.125.
Turning to A36C C66U, the self-cleavage was found to be 0.264.
To U7C A35U belongs 0.523; to C46U U53C, 0.235.
To C18A U67C belongs 0.274.
Consider G42C U70A, for which the self-cleavage is 0.222.
For the variant C37A C66A, the self-cleavage is 0.0612.
To A11G G68A belongs 0.277; to C6G A22G, 0.52; to G1A G40U, 0.123.
To G32U A47U belongs 0.121.
With U9G A39G, the self-cleavage came to 0.206.
With G17C G68A, the self-cleavage came out at 0.196.
Turning to G15U G42U, the self-cleavage stood at 0.369.
In the case of G13A G69U it was 0.24; in that of A36G G54U, 0.816; in that of C38G A49C, 0.106.
To G19U G57C belongs 0.105.
To G25A G27U belongs 0.177.
With A35C A49C, the self-cleavage was determined as 0.147.
In the case of U9A A71U it was 0.525; in that of C37U U60C, 0.645.
To U9C G56C belongs 0.158; to U33G C66A, 0.0596.
With G40C C66A, the self-cleavage is 0.105.
To U58A U70G belongs 0.493.
As to U14A A47U, the self-cleavage is 0.143.
In the case of G13A C16G it was 0.593; in that of U7C A24C, 1.04; in that of U7A G25U, 0.229.
In the case of G15C U67G, the self-cleavage was 0.294.
As for C10U, the self-cleavage was 0.775.
In the case of A39G G69U it was 0.122; in that of A31G G34C, 1.44; in that of A11U A31C, 0.152.
To C12G G32A belongs 0.143; to A26C C37U, 0.446; to U8C G13U, 0.529.
Regarding C18U G34U, the self-cleavage amounted to 1.46.
In the case of C10A U67G it was 0.171; in that of G42A A61G, 0.201.
In the case of G32C A43U it was 0.127.
In the case of G57A A59U it was 0.0919; in that of G1U C37A, 0.158; in that of A35G A41U, 1.28.
G40C A59C: the self-cleavage came out at 0.0991.
In the case of A36C C46U it was 0.15; in that of U2A U53A, 0.303; in that of G1U A71G, 0.115.
On to A26G C38U, for which the self-cleavage was 0.297.
To G13C G29A belongs 0.106; to A30C G51A, 0.26.
In the case of C38U G42A it was 0.132; in that of A59U A61G, 0.166; in that of A39C U67A, 0.272.
To C18G A59G belongs 0.284.
U9C U62C: the self-cleavage was 0.143.
Regarding G54C U62A, the self-cleavage amounted to 0.186.
To U8A U63A belongs 0.111.
In the case of U5A A28C it was 0.297; in that of A30C G40A, 0.116.
To G27A C38A belongs 0.127.
For A24U G29A, the self-cleavage amounted to 0.146.
As to A47U U55G, the self-cleavage stood at 0.128.
To A22U A36C belongs 0.589.
Take C3A G42U: the self-cleavage is 0.249.
In the case of C6A G51C it was 0.531; in that of A22C A64C, 0.101.
As for U14C G40U, the self-cleavage was found to be 0.188.
On to G34C U63C, for which the self-cleavage turned out to be 0.506.
In the case of A44U U63G, the self-cleavage was found to be 0.209.
To G15U C66U belongs 0.574; to G17C A39U, 0.35.
In the case of G21U G34U it was 1.24; in that of U14G U52A, 1.02.
As for A26C U67C, the self-cleavage was 0.21.
In the case of A45C U58G it was 0.3; in that of U9A U53A, 0.768.
In the case of U14G U67G it was 0.243; in that of C48A G51U, 0.141; in that of A11G A28G, 1.11.
In the case of U20A A45G it was 0.183; in that of G40U A59C, 0.0879.
As for C37U G69A, the self-cleavage is 0.46.
In the case of U52G A71C it was 1.32; in that of A43G U58G, 0.212.
As for A49C U53C, the self-cleavage stood at 0.27.
To C16G U62C belongs 0.213; to G21C G32A, 0.141.
For G34C A47G, the self-cleavage came to 0.448.
In the case of A30C A44G it was 0.145; in that of C4G A47U, 0.0972; in that of C16U A71G, 1.08.
A30G U33A: the self-cleavage was 0.0512.
Take U7A G54C: the self-cleavage is 0.349.
To C10G G29U belongs 0.136; to A36U U52G, 0.466; to G40U A43G, 0.134.
To C37U U58C belongs 0.743.
To C38G A44G belongs 0.335; to G27C C50G, 0.114; to U52G C65U, 0.302.
As for G25C U52C, the self-cleavage was found to be 0.657.
In the case of U2G A11G it was 0.306; in that of A23G A26G, 0.648; in that of C4U C12G, 0.259.
A45G U52A: the self-cleavage was 0.0852.
In the case of G51C A59U it was 0.172; in that of G15U A23U, 0.918; in that of A24U U67C, 0.207.
To A23G A30G belongs 0.211.
Take G32A A41G: the self-cleavage is 0.183.
As for A45G U67C, the self-cleavage was determined as 0.12.
To G1A A22U belongs 0.109; to U9G A30C, 0.206.
